Measurements: publication PMC8836279, “The T850D Phosphomimetic Mutation in the Androgen Receptor Ligand Binding Domain Enhances Recruitment at Activation Function 2” (International Journal of Molecular Sciences, 2022)
Substitutions are numbered along the chain they refer to. Square brackets hold non-standard residues; d marks the D form. pT = C[C@@H](OP(=O)(O)O)[C@H](N)C(=O)O

Tests used:
[1] = test system: LBD WT; details: split TEV assay, Hep3B
[2] = target: T1, AR T850A (Homo sapiens, UniProt P10275, T851A); experiment: Whole-cell competition ligand binding assay in COS-7 cells; details: mean ± SE
T1 construct: Cells expressing a flag-tagged AR full-length were used as control; expressed in transfected cells
T1 sequence (P10275 1-920 T851A): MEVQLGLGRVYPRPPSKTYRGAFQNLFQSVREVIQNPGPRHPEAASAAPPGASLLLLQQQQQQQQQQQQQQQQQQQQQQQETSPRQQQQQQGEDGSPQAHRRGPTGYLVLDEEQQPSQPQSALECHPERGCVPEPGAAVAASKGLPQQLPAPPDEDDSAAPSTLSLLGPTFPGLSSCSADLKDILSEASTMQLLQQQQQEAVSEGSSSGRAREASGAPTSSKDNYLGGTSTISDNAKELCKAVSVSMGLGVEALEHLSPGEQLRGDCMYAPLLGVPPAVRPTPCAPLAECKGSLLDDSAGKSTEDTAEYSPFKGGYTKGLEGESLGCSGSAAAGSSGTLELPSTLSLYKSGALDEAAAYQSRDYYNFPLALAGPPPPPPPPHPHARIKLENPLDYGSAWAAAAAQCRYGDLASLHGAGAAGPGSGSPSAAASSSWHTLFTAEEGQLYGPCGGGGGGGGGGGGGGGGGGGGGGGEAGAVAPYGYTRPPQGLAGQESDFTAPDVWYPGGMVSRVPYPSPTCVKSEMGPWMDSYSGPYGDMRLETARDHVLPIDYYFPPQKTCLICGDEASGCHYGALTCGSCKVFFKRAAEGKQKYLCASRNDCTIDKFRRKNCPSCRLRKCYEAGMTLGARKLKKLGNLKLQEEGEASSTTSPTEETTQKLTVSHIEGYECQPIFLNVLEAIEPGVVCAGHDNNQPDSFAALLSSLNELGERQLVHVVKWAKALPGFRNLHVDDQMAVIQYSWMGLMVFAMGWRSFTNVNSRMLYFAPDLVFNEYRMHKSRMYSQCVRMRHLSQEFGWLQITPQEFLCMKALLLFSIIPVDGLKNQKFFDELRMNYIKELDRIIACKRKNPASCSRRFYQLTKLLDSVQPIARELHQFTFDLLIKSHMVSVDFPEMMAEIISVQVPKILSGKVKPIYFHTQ
Protocol: (§1) After addition of Ultima Gold XR (Perkin Elmer, Waltham, MA, USA), cell lysates were counted for ^3H-signal. Data were normalized for the average cpm of all data points per independent experiment. Mean and SEM of the specific binding (total binding—non-specific binding) is given (n ≥ 3). Via non-linear regression analysis using the One-site binding-equation of GraphPad Prism 9 (version 9.3.1), the KD and Bmax were calculated. Ratio-paired T-test with * = p ≤ 0.05, ** = p < 0.01.

[3] = target: T2, AR T850D (Homo sapiens, UniProt P10275, T851D); experiment: as above
T2 construct: Cells expressing a flag-tagged AR full-length were used as control; expressed in transfected cells
T2 sequence (P10275 1-920 T851D): T1 sequence (P10275 1-920 T851A) with A851D
Protocol: as §1

[4] = target: T3, AR WT (Homo sapiens, UniProt P10275); experiment: as above; details: mean ± SE
T3 construct: Cells expressing a flag-tagged AR full-length were used as control; expressed in transfected cells
T3 sequence (P10275 1-920): T1 sequence (P10275 1-920 T851A) with A851T
Protocol: as §1

[5] = Circular dichroism spectroscopy and thermal denaturation of H10 peptides; type: physicochemical; details: for melting temperature higher than the WT peptide: 25 µM peptide in 20% TFE-TRIS buffer pH 7.5, at all wave lengths (208, 211, 215, 222 nm); for reduction (vs. WT peptide) of the CD minimum at 208 nm / reduction (vs. WT peptide) of the CD minimum at 222 nm: 50 µM peptide in 20% TFE-TRIS buffer pH 7.5, 4 °C
Protocol: Peptides (AR WT 845–868: Acetyl-[…]-amide) with T850D or with phosphorylated T850 (Genscript, Piscataway, NJ, USA) were compared to WT peptide through their CD spectra. […] The Mean Residue-Molar Ellipticity (MR-ME) was calculated as MR-ME = MRW × θ/(10 × d × c) with MRW (Mean Residue Weight) = peptide weight/(n − 1) and n = […]; with θ as the observed ellipticity in millidegrees; […]. The unfolded fraction (Funfolded) of the peptide was calculated from the Ellipticity data using equation: Funfolded = (θt − θfolded)/(θunfolded − θfolded) with θt as the Ellipticity at each temperature, θfolded as the Elllipticity of the peptide in folded state and θunfolded as the Ellipticity of the peptide in unfolded state. Melting temperature (Tm) of AR 845–868 peptides were calculated through nonlinear regression analysis of the Sigmoidal dose response curves (variable slope) using GraphPad Prism 9, version 9.3.1. The temperature corresponding to an unfolded fraction of 0.5 is the Tm. Mean melting temperatures with 95% CI of 2 independent experiments are given. Helix content was calculated from the molar ellipticity [θ] at 222 nm using the following equation, % helix = 100 ([θ]222/(−39,500(1 − 2.57/n))), where n is the number of total peptide bonds and [θ]222 has been corrected for background.

Molecule | melting temperature higher than the WT peptide [5] | reduction (vs. WT peptide) of the CD minimum at 208 nm [5] [%] | reduction (vs. WT peptide) of the CD minimum at 222 nm [5] [%] | also measured
C[C@]12CCC(=O)C[C@@H]1CC[C@@H]1[C@@H]2CC[C@]2(C)[C@@H](O)CC[C@@H]12 [DHT, dihydrotestosterone] |  |  |  | EC50 of WT LBD compared to EC50 of T850D LBD [1]: 10 fold
C[C@@H]1CC2=CC(=O)CC[C@@H]2[C@H]2CC[C@@]3(C)[C@@H](CC[C@]3(C)O)[C@@H]21 [^3H-Mib] |  |  |  | Bmax [2]: 5514 (±561) cpm; increase of maximal binding, AR T850D vs. AR WT [3]: approximately 50%; Bmax ([3]; mean ± SE): 7902 (±773) ** cpm; Bmax [4]: 5182 (±602) cpm
T850D peptide: H10 peptide AR 845–868 (WT: Acetyl-KRKNPTSCSRRFYQLTKLLDSVQP-amide) with T850D (Ac-KRKNPDSCSRRFYQLTKLLDSVQP-NH2) | approximately 13 °C | 30 | 43 | 
T850Ph peptide: H10 peptide AR 845–868 (WT: Acetyl-KRKNPTSCSRRFYQLTKLLDSVQP-amide) with phosphorylated T850 (Ac-KRKNP[pT]SCSRRFYQLTKLLDSVQP-NH2; SMILES CC(=O)N[C@@H](CCCCN)C(=O)N[C@@H](CCCNC(=N)N)C(=O)N[C@@H](CCCCN)C(=O)N[C@@H](CC(N)=O)C(=O)N1CCC[C@H]1C(=O)N[C@H](C(=O)N[C@@H](CO)C(=O)N[C@@H](CS)C(=O)N[C@@H](CO)C(=O)N[C@@H](CCCNC(=N)N)C(=O)N[C@@H](CCCNC(=N)N)C(=O)N[C@@H](Cc1ccccc1)C(=O)N[C@@H](Cc1ccc(O)cc1)C(=O)N[C@@H](CCC(N)=O)C(=O)N[C@@H](CC(C)C)C(=O)N[C@H](C(=O)N[C@@H](CCCCN)C(=O)N[C@@H](CC(C)C)C(=O)N[C@@H](CC(C)C)C(=O)N[C@@H](CC(=O)O)C(=O)N[C@@H](CO)C(=O)N[C@H](C(=O)N[C@@H](CCC(N)=O)C(=O)N1CCC[C@H]1C(N)=O)C(C)C)[C@@H](C)O)[C@@H](C)OP(=O)(O)O) | ~27 °C | 38 | 51 | 
